From patent US20210155689A1 (SHANGHAI PHARMAEXPLORER, published 2021)

T1: human LAG-3 on cells (HEK293-hLAG-3 stable cell line) (human, UniProt P18627 23-525)
T1 sequence: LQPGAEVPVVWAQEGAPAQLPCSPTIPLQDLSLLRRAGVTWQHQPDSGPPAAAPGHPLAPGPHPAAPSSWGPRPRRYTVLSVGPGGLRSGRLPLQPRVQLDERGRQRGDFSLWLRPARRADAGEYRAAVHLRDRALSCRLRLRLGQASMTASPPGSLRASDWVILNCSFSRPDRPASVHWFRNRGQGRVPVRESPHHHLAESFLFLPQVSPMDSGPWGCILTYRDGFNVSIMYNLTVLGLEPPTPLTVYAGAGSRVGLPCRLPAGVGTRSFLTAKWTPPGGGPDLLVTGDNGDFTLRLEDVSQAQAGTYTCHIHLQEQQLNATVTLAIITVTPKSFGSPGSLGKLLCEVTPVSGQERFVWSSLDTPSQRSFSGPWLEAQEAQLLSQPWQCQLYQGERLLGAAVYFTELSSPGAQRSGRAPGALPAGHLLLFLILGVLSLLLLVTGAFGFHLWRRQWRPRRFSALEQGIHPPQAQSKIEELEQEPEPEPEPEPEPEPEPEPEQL

T2: monkey LAG-3 on cells (HEK293-cLAG-3 stable cell line) (monkey, UniProt P18627 24-525 (human entry))
T2 construct: Full-length monkey (Chinese monkey) LAG-3 gene expressed on HEK293 cells
T2 chain: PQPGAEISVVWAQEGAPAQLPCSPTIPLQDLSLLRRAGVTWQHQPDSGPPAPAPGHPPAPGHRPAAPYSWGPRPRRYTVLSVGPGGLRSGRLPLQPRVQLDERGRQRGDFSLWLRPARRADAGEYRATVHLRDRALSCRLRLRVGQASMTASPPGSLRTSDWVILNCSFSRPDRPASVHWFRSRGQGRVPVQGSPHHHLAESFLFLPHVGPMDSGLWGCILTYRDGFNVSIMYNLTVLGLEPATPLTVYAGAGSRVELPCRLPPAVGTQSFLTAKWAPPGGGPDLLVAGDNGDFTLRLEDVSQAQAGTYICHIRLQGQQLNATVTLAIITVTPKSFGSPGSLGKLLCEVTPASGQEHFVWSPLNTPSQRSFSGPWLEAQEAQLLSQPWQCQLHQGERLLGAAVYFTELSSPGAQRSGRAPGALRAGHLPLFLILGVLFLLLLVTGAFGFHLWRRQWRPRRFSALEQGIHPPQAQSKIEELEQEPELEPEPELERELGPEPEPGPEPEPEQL

T3: LAG-3-hFc protein (human LAG-3 extracellular region with hFc tag) (human, UniProt P18627 23-450)
T3 construct: also called hLAG-3-hFc; LAG-3 protein; not shown: human IgG Fc fragment (hFc) of the pCpC vector
T3 sequence: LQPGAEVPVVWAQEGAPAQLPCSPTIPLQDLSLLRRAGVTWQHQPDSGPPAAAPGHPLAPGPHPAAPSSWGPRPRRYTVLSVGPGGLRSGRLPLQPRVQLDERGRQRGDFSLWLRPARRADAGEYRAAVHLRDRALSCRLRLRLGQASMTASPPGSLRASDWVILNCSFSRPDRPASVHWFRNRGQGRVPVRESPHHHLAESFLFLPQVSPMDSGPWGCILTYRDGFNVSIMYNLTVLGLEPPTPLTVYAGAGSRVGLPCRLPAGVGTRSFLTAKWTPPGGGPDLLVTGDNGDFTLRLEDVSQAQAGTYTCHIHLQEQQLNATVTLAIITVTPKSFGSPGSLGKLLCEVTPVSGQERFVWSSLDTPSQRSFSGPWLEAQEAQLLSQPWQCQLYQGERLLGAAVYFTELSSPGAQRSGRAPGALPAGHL


Assays:
[1] = molecular target: T1, human LAG-3 on cells (HEK293-hLAG-3 …); experiment: FACS, HEK293-hLAG-3, antibody 0.064 nM
From the text: (§1) The pIRES plasmid with the monkey-derived full-length gene was transfected into the HEK293 cell line to construct a HEK293 stable cell line containing monkey LAG-3 (herein referred to as HEK293-cLAG-3 stable cell line). The HEK293-hLAG-3 stable cell line and HEK293-cLAG-3 stable cell line were expanded in a T-75 cell culture flask to a 90% confluence. The medium was aspirated, and the cells were washed with HBSS (Hanks' Balanced Salt Solution) 1-2 times, then treated with a enzyme-free cell dissociation fluid (Versene solution: Life technology) and the cells were collected. The cells were washed with HBSS buffer for 1-2 times. After counted, the cells were diluted with HBSS to 1-2×10⁶ cells per ml, added with 1% goat serum blocking solution, incubated on ice for 20-30 minutes, and then washed with HBSS for 2 times by centrifugation. The collected cells were suspended in the FACS buffer (HBSS+1% BSA) to 2×10⁶ cells/ml, added as 100 microliters per well to a 96-well FACS reaction plate, added with 100 microliters per well of the antibody sample to be tested, incubated on ice for 1-2 hours. The plate was washed twice with the FACS buffer by centrifugation, added with 100 microliters of fluorescent (Alexa 488)-labeled secondary antibodies per well, and incubated on ice for 0.5-1.0 hours. The plate was washed 2-3 times with FACS buffer by centrifugation, added with 100 μl fixative solution (4% Paraformaldehyde) per well to suspend the cells. 5-10 minutes later, it was washed 1-2 times with FACS buffer by centrifugation. The cells were suspended with 100 microliters of FACS buffer, FACS (FACSCalibur, BD) was used for detection and the results were analyzed.

[2] = molecular target: T2, monkey LAG-3 on cells (HEK293-cLAG-3 …); experiment: FACS, HEK293-cLAG-3, antibody 1.600 nM
From the text: as §1

[3] = molecular target: T3, LAG-3-hFc protein (human LAG-3 …); experiment: FACS, inhibition of LAG-3-hFc binding to MHC II on Raji cells, antibody 0.000 nM
Description: (§2) The FACS reaction plate incubating the Raji cells was centrifuged to discard the supernatant. The above mixture was added as 100 μl per well to Raji cells and incubated on ice for 1-2 hours. The plate was washed twice with blocking solution (PBS, 2% fetal bovine serum) by centrifugation, added with 100 microliters of fluorescent (Alexa 488)-labeled secondary antibodies per well, and incubated on ice for 1.0 hours. The plate was washed 2-3 times by centrifugation with blocking solution (PBS, 2% fetal bovine serum), added with 100 microliters of PBS per well to suspend cells, and detected using FACS (FACS Calibur, BD) and the results were analyzed. Wherein, the IgG control was murine IgG, and the data in the table is the inhibition rate (%).

[4] = molecular target: T3, LAG-3-hFc protein (human LAG-3 …); experiment: FACS, inhibition of LAG-3-hFc binding to MHC II on Raji cells, antibody 0.823 nM
Description: as §2

[5] = molecular target: T3, LAG-3-hFc protein (human LAG-3 …); experiment: FACS, inhibition of LAG-3-hFc binding to MHC II on Raji cells, antibody 22.222 nM
Description: as §2

| Binder | Mean fluorescence intensity [1] | Mean fluorescence intensity [2] | Inhibition rate (%) [3] | Inhibition rate (%) [4] | Inhibition rate (%) [5] |
| --- | --- | --- | --- | --- | --- |
| 105F1E10 mouse-human chimeric antibody (antibody, V domains shown, also called mAb009-105F1E10) VH: EVQLQQSGPELVKPGASVKMSCRASGYTFTDFKMHWMKQSHGKSLEWIGYIAPNNGGTAYNQKFRGKATLTVNESSNTAYMELRSLTSEDSAVYYCVDWDDVDYWGQGTTLTVSS VL: DIKMTQSPSSMYASLGERVTITCKASQDINSYLSWFQQKSGKSPKTLIYRANRLVDGVPSRFSGSGSGQDYSLTISSLEYEDMGIYYCLQYVEFPLTFGAGTKLELK | 5.1 | 14.7 | -32.3% | -0.3% | 95.8% |
| 405B8H3 mouse-human chimeric antibody (antibody, V domains shown, also called mAb103-405B8H3) VH: QVQLQQSGAELVRPGASVTLSCKASGYTFTDYEMHWVKQTPVHGLEWIGATDPETGNSAYNQKFKGKAIMTADKSSSTAYMELRSLTSEDSAVYYCISTGWNDWGQGTSLTVSS VL: DIKMTQSPSSMYASLGERVTITCKASQDINSYLSWFQQKPGKSPKTLIYRADRLLDGVPSRFSGSGSGQDYSLTISSLEYGDMGIYYCLQYDEFPYTFGGGTKLEIK | 6.3 | 29.4 | -15.6% | 17.5% | 95.7% |
| 409D4E10 mouse-human chimeric antibody (antibody, V domains shown, also called mAb112-409D4E10) VH: QVQLQQSGAELVRPGASVTLSCKASGNTFTDYEMHWVKQTPVHGLEWIGATDPETDNTAYNQKFKGKAILTTDKSSSTAYMELRSLTSEDSAVYYCITSGWNDWGQGTSLTVSS VL: DIKMTQSPSSMYASLGERVTITCKASQDINSYLSWFQQKPGKSPKTLIYRANRLLDGVPSRFSGSGSGQDYSLTISSLEYEDMGIYYCLQYNEFPYTFGGGTKLEIK | 6.3 | 25.8 | -1.7% | 20.9% | 95.7% |
| 409B11E12 mouse-human chimeric antibody (antibody, V domains shown, also called mAb104-409B11E12) VH: QVQLQQSGAELVRPGASVTLSCKASGYTFTDYEMHWVKQTTVHGLEWIGATDPETSYSAYNQKFKGKAILTADKSSSTAYMELRSLTSEDSAVYYCIATGWNDWGQGTSLTVSS VL: DLKMTQSPSSMYASLGERVTITCKASQDINSYLSWFQQKPGKSPKTLIYRANRLLDGVPSRFSGSGSGQDYSLTISSLEYEDMGIYYCLQYDEFPYTFGGGTKLEIK | 6.3 | 32.8 | -11.8% | 24.4% | 95.6% |
| 556F6B8 mouse-human chimeric antibody (antibody, V domains shown, also called mAb123-556F6B8; 556F8B8) VH: RVQLKQSGPGLVQPSQSLSITCTVSGFSLIKYGVHWVRQSPGEGLEWLGVIWRGGITDYNAAFMSRLSITKDNSKSQVFFKMNSLQADDTAIYYCAKWDGPLAMDYWGQGTSVTVSS VL: DIVMTQSHKFLSTSVGDRVSITCKASQDVGTTVAWYQQKPGQSPKLLIYWASTRHTGVPDRFTGSGSGTDFTLTISNVQSEDLADYFCQQYSSYPYTFGGGTKLEIK | 6.5 | 19.2 | 12.9% | 29.7% | 95.8% |
